The numbers were not newly measured in article PMC6133022, which cites them from elsewhere.

Usually Kd stands for the free concentration of one partner at which half of the binding sites on the other are occupied at equilibrium, for simple one-to-one binding.

This series has as its target alpha-bungarotoxin (Bungarus multicinctus) (UniProt P60615).
UniProt P60615, sequence (P60615 22-95): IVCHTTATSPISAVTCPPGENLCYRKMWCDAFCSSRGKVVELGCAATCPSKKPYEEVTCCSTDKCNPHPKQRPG

Turning to alpha7-nAChR (from UniProt P36544), the Kd is 0.094 nM.
